Test results taken from the supplement of paper PMC12636428.

What follows are sequences tested on Saccharomyces cerevisiae (assay: transcriptional activation domain activity (GFP:mCherry ratio, weighted mean of sorted bins, harmonized to initial dataset scale) (arbitrary fluorescence ratio units); higher = stronger transcriptional activation). Conditions: beta-estradiol 1 µM; induction time 4 h.
Procedure, shortened: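 Each value is an activation activity: the read-weighted mean of bin median fluorescence, averaged across barcodes, then mapped linearly to the initial dataset scale. The tiles, fused to an estradiol-inducible synthetic transcription factor, sat at the yeast URA3 locus in GFP-reporter diploids. Cells spent 4 hours at 30 °C in SC with 1 uM beta-estradiol before sorting into 8 GFP:mCherry bins, and tiles below 50 reads were removed.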

| Sequence | transcriptional activation domain activity |
| --- | --- |
| SSSSSSSSESGSESDSGSDDGSASGSGDNSSTSSESESESDSGSEVDEKNNKN | 33900 |
| IQEDNEEGERRRRRRKGKAGEETEGEKKEKKRKKNGATKSGKRGKMERNGKLK | 28400 |
| ALLKLLVMMLWEIEFYEPCFGALRLMDYITSEICPDSNLSAEATLLRIRTLIR | 58200 |
| SMGENLFDVFRARVILTWYYWTHARWCDVYMSSVISLRLAVTCGLNGCPPFQT | 75000 |
| VVPYYCLFVFFPFYSCVLVRLAGNCHSCLIIALFFLILISGRSFFFFFFFFFF | 14200 |
| GGEGGAARNGRKRAENARRGREGGKERGPGNKTVAGQEAGGRGHREDRGGSDR | 40500 |
| TLRQELPNFFIFGLNNTSIYSSNILLWEPRYTGLQIRGKWSYLMLAATIRWSL | 54000 |
| IWSFVILLRETVLCGSIVLAISATSDYFYYGLWTFPPYQWLNFNLTQSLAVFY | 66800 |
| IIAKVIKYAKTIEELYLAYFSVKEYLLNIAIAKTCLTYLTDIKGSHSMIRYNF | 28200 |
| MKRSAAALVSYPSSDEETSEAQAKSEPIKKKKKLPQLSSSLVVPVPVDNPALH | 41300 |
| GAQKPFDLTHWNITEYDCQGFDGYHEMSFFVLASHLYYRSLRSIPSLVRLWWI | 75200 |
| ELGLLADIMQHEIQGFWGLIKILAKRRKNKYHANMADVNMRSVFQKAFTSWMM | 44500 |
| MCVAFSFSSPRFFYSWVMGDFSFFFSFLPPFDSFFSFSLGSIMYPLFLGIFFF | 59400 |
| VRLVDIFLLKKYYLINLSLAYLSILLFPPPSPRPLYHLFSIYFFFFLFSSASP | 45400 |
| LLMGLYLSEICMIGLFVLRDAFGPMVLMVMFFVLSILVHLSLADAFSPLLYNL | 52200 |
| GVEGQGKRTRAGKKRRIVLRERQRKRVKEEEERKKKGEEKEGREREKRVRRNR | 46700 |
| FFHVTIRCASQGCGIAFGILGFQNTNVFLAYLILGAEGYFTLVLCVFRFLISW | 73400 |
| FLMLVCLEVIGRGLTNKVVLMPSGLYCIPNIIHPKGFQLALEIIFLVLFIPCP | 39600 |
| AAAPAPEPAPKKGRPGRKPAAKSEPEAVEEKTEDAPKKRGRRSTLIPEPVEET | < 6570 |
| NAVIKDFACVNECLARCSHVITTRRIIYILQLRVHCVAYSLPILNLPLFFFSR | 55300 |
| QTDPEKKRVWENKILETLERRPSKKCDYILLRSEQLVGTALIVLVKSELTSVI | 54900 |

| Sequence | transcriptional activation domain activity |
| --- | --- |
| MITVALYIIGRGFFSFFFIFCHFTILVFLFLAAYFFLFFSCPFLLLFYFFWFT | 54200 |
| AGSSTFRDKGKGRASDAGPVSRTGDNEGGEESAGEGNQREKKRVKKEVKKAPR | 20300 |
| CQWWKYLMERLLLLPPLVRVQIILLLFAFVIPKLHLHAHTLACQLVFSLNFLL | 51200 |
| FILYSLLLIPFPLNYILSYIFFFFFLILWGIYLAMRGFFKSWFSLWAWAGNGI | 64600 |
| TTLVTGTQLFFLLSFRDTMFAFSFLLFSPFVLFLWYGFFSSGALFISLICFLV | 54700 |
| ILNITPYAAGQFGYYYGTCWFNDPRPDVQFRWLLGSQSVWILLMSTGEVVFFF | < 6570 |
| GVFVLLEQYCGINFYGLRKHGGTASMCPLGGTLRSWAYRFVAISYPPKRMVNG | 27600 |
| DDEHEDRHREGRGSRGDRTRSASADSKHRSSRRDKEKHRSSRSHRDRSKEQRR | 37400 |
| VKRVAFGCLSTILALYLVHKYTYEHPFILSDNRHYSFYVWKKIYRRHWMVRYC | 61000 |
| MTCCLNLFCLLLINLIFFVCACCLLVFSLLAIQNKLPECILLPINIFKMLTIL | 52900 |
| MFLPFSLSINHLPSLLLQPFILSLILLLFFLCLLHRLFPFLLQFFPFLFQFLS | 50100 |
| MPLVRRLGAGGDRGAGTVRVRVATSSHTPHHLKVVVLSKVPFLLPDIVVDRMQ | 12900 |
| MSSSDPLRKRDFEDSTRRLACDRCRGQKLRCERITGKTTSPCRRCVKARARCT | 35300 |
| YIPEHLRSYVLVAHLLEMCNLHTVFLPQLLDPLIVLCLQHRLTIQAFAFIKTR | 77300 |
| VVCHFVIMMASMSYKIVICVIIGVHADLMVMDARWRSLGSWLYLLCGVIVAPA | 67300 |
| RQRAGASGGEEARGRREGRREGGEGEGEGKTEEGTNERDGREGERREGRRRGG | 37700 |
| YDILKCVLPCIVQLLPRNSPLVHCIRAYQCYRIMIGLQCMTERRLKHLQELIK | 44800 |
| ADSARGGDADAKYRDRDRQRQTETETDRQTKTERDTQRQRQRHRHTHTHSPVQ | 37200 |
| KQYCVRPNSGRIEAGKEVEVQVLLQAMKEDPPADAKCRDKFLVQSVAISADKE | 17800 |
| MAEDSDPSADGGLPMPYSCYECRNRKLKCDRRKDGCSRCAQAGGKCHYPTSRK | 48800 |
